{"source": "the nanobody polyreactivity screen of Harvey et al. (2022)", "data": [{"assay": "yeast display, Sf9 membrane polyspecificity reagent, FACS + sequencing; frameworks hold sequencing errors", "in_short": "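Polyreactivity labels are assigned by the sorting gate from which each nanobody was recovered. The gates were low and high (top ~1%), set on anti-HA fluorescence for expression and streptavidin fluorescence for reagent binding. Before sorting, galactose-induced (36–48 hours) yeast display cells were stained for 1 hour at 4 °C with 10% biotinylated, detergent-solubilized Sf9 membrane reagent.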", "values": [{"sequence": "QVQLVESGGGLVQAGGSLRLSCAASGFIFQRYAMGWYRQAPGKERELVAAISSGGGTNYADSVKGRFTISRDNAKNTVYLQMNSLKPEDTAVYYCARPYYVYSQSSDYWGQGTQVTVSS", "polyreactivity (PSR sort gate)": "low polyreactivity"}, {"sequence": "QVQLVESGGGLVQAGGSLRLSCAASGFIFQRYAMGWYRQAPGKERELVAAISSSGGRTSYADSVKGRFTISRDNAKNTVYLQMNSLKPEDTAVYYCAAYPQGRWYVVWSGDYWGQGTQVTVSS", "polyreactivity (PSR sort gate)": "high polyreactivity"}, {"sequence": "QVQLVESGGGLVQAGGSLRLSCAASGFIFQTNVMGWYRQAPGKERELVAAISSGDSTYYADSVKGRFTISRDNAKNTVYLQLNSLKPEDTAVYYCAADVLGTTTTVGGFNYWGQGTQVTVSS", "polyreactivity (PSR sort gate)": "low polyreactivity"}, {"sequence": "QVQLVESGGGLVQAGGSLRLSCAASGFIFQYNAMGWYRQAPGKERELVAAITSRGGSTYYADSVKGRFTISRDNAKNTVFLQMNSLKPEDTAVYYCATRRSYLADYWGQGTQVTVSS", "polyreactivity (PSR sort gate)": "high polyreactivity"}, {"sequence": "QVQLVESGGGLVQAGGSLRLSCAASGFIFRANAMGLYREAPGKERELVATISRSGGSTSYADSVKGRFTISRDNAKNTVYLQMNSLKPEDTAVYYCNKRTPYLRPIRDYWGQGTQVTVSS", "polyreactivity (PSR sort gate)": "high polyreactivity"}, {"sequence": "QVQLVESGGGLVQAGGSLRLSCAASGFIFRDNAMGWYRQAHGKERELVASIRSSGGRTYYADSVKGRFTISRDNAKNTVYLQMNSLKPEDTAVYYCARRWYPVTPYARMYYWGQGTQVTVSS", "polyreactivity (PSR sort gate)": "low polyreactivity"}, {"sequence": "QVQLVESGGGLVQAGGSLRLSCAASGFIFRDNAMGWYRQAPGKERELVAAISKSGGRTYYADSVKGRFTISRDNAKNTVYLQMNCLKPEDTAVYYCAADAYHFGRMDYWGQGTQVTVSS", "polyreactivity (PSR sort gate)": "high polyreactivity"}, {"sequence": "QVQLVESGGGLVQAGGSLRLSCAASGFIFRDYAMGWYRQAPGKEREFVAAITSRGGSTYYADSVKGRFTISRDNAKNTVYLQMNSLKPEDTAVYYCNRYWWAYGEYDYWGQGTQVTVSS", "polyreactivity (PSR sort gate)": "high polyreactivity"}, {"sequence": "QVQLVESGGGLVQAGGSLRLSCAASGFIFRDYAMGWYRQAPGKERELVAAISWSSDSTYYADSVKWRFTISRDNAKNTVYLQMNSLKPEDTAVYYCAAKGLRGYWWGFDYWGQGTQVTVSS", "polyreactivity (PSR sort gate)": "low polyreactivity"}, {"sequence": "QVQLVESGGGLVQAGGSLRLSCAASGFIFRFNAMGWYRQAPGKERELVAVIRWSSGSTYYADSVKGRFTISRDNAKNTVYLQMNSLKPEDTAVYYCAAYVVPAYYYWGQGTQVTVSS", "polyreactivity (PSR sort gate)": "low polyreactivity"}, {"sequence": "QVQLVESGGGLVQAGGSLRLSCAASGFIFRGKAMGWYRQAPGKERELVAAISSRGGSTYYADSVKGRFTISRDNAKNSVYLQMNSLKPEDTAVYYCAAGSTSGYFRYYYWGQGTQVTVSS", "polyreactivity (PSR sort gate)": "high polyreactivity"}, {"sequence": "QVQLVESGGGLVQAGGSLRLSCAASGFIFRINAMGWYRQAPGKERELVARITSGGSTYYADSVKGRFTISRDNAKNTVYLQMNSLKPEDTAVYYCAARVKYYGSQSRYYWGQVTQVTVSS", "polyreactivity (PSR sort gate)": "high polyreactivity"}, {"sequence": "QVQLVESGGGLVQAGGSLRLSCAASGFIFRKNAMGWYRQAPGKERELVAANSQSGGSTYYADSVKGRFTISRDNAKNTVYLQMNSLKPEDTAVYYCAARYDLPNWVGGREYNYWGQGTQVTVSS", "polyreactivity (PSR sort gate)": "high polyreactivity"}, {"sequence": "QVQLVESGGGLVQAGGSLRLSCAASGFIFRKYAMGWFRQAPGKERELVAAISRGGGSTYYADSVKGRFTISRDNAKNTVYLQMNSLKPEDTAVYYCAVGIVQRDSRYYYWGQGTQVTVSS", "polyreactivity (PSR sort gate)": "high polyreactivity"}, {"sequence": "QVQLVESGGGLVQAGGSLRLSCAASGFIFRLYTMGLYRQAPGKERELVARITRGDSTNYADSVKGRFTISRDNAQNTVYLQMNCLYPEDTAVYYCAKLHRGLPYYSFYRGYYYWGQVTQVTVSS", "polyreactivity (PSR sort gate)": "low polyreactivity"}, {"sequence": "QVQLVESGGGLVQAGGSLRLSCAASGFIFRNYAMGWYRQAPGKERELVAAITRSGTSTYYADSVKGRFTISRDNAKNTVYLQMNSLKPEDTAVYYCAARAWSSRRRLMYYWGQGTQVTVSS", "polyreactivity (PSR sort gate)": "high polyreactivity"}, {"sequence": "QVQLVESGGGLVQAGGSLRLSCAASGFIFRPYAMGWYRQAPGKERELVAAISFSGGSTYYADSVKGRFTISRDNAKNTVYLQMNSLIPEDTAVYYCAAVYYFSYWLGPDDYWGQGTQVTVSS", "polyreactivity (PSR sort gate)": "low polyreactivity"}]}]}
